Patent US20040023255

System: microtubules

## HsKip3d M1-S357 protein
  Km for microtubule stimulation (coupled PK/LDH microtubule-stimulated ATPase assay, Michaelis-Menten fit): a Km for microtubule stimulation of 0.2 µM
